Laboratory results reported in FireProtDB (doi:10.1002/pro.5560041207).

B1: Thioredoxin, P08058 (parent)
chain: MSTVPVTDATFDTEVRKSDVPVVVDFWAEWCGPCRQIGPALEELSKEYAGKVKIVKVNVDENPESPAMLGVRGIPALFLFKNGQVVSNKVGAAPKAALATWIASAL

Variants of: B1
Details: Cereibacter sphaeroides, pH 7.4, 23 °C, Urea, Fluorescence, whole UniProt chain shown

Variant	ddG of mutation (higher = less stable) (Potassium phosphate 20 mM)	unfolding free energy (Potassium phosphate 20 mM)	unfolding free energy (Potassium phosphate 20mM)
MSTVPVTDATFDTEVRKSDVPVVVDLWAEWCGPCRQIGPALEELSKEYAGKVKIVKVNVDENPESPAMLGVRGIPALFLFKNGQVVSNKVGAAPKAALATWIASAL [F26L]	3.4 kcal/mol	4.8 kcal/mol	4.78 kcal/mol
MSTVPVTDATFDTEVRKSDVPVVVDIWAEWCGPCRQIGPALEELSKEYAGKVKIVKVNVDENPESPAMLGVRGIPALFLFKNGQVVSNKVGAAPKAALATWIASAL [F26I]			4.3 kcal/mol
MSTVPVTDATFDTEVRKSDVPVVVDYWAEWCGPCRQIGPALEELSKEYAGKVKIVKVNVDENPESPAMLGVRGIPALFLFKNGQVVSNKVGAAPKAALATWIASAL [F26Y]			7.89 kcal/mol
MSTVPVTDATFDTEVRKSDVPVVVDVWAEWCGPCRQIGPALEELSKEYAGKVKIVKVNVDENPESPAMLGVRGIPALFLFKNGQVVSNKVGAAPKAALATWIASAL [F26V]	4.8 kcal/mol	3.4 kcal/mol	3.35 kcal/mol
